B1: Envelope small membrane protein (Human SARS coronavirus), P59637 (parent)
chain: MYSFVSEETGTLIVNSVLLFLAFVVFLLVTLAILTALRLCAYCCNIVNVSLVKPTVYVYSRVKNLNSSEGVPDLLV

Variants of: B1
Settings: with SDCBP

| Variant | effect of a mutation on the interaction |
| --- | --- |
| E69A;V71A;D73A;L75A | with no effect |

Variants of: B1
Settings: with SDCBP
Remark: another data set of the same source

| Variant | effect of a mutation on the interaction |
| --- | --- |
| D73G;L74G;L75G;V76G | decreasing interaction strength |

From IntAct's records for PubMed 25122212
